Experimental data: publication PMC7842262

Tested on: HIV-1 Rev (HIV-1)
Assay: EMSA
Conditions: scale: fold more Rev than RRE for 50% unbound RNA

Substance: 433-mer RcRE (K-RRE)
- binding signal: 8
